Results published in patent publication US20240383984A1 (Genentech, published 2024).

T1: human FcRH4 (full-length, on SVT2 cells) (human, UniProt Q96PJ5 20-515)
T1 construct: whole, on cells; also called SVT2-FcRH4
T1 sequence (looked up): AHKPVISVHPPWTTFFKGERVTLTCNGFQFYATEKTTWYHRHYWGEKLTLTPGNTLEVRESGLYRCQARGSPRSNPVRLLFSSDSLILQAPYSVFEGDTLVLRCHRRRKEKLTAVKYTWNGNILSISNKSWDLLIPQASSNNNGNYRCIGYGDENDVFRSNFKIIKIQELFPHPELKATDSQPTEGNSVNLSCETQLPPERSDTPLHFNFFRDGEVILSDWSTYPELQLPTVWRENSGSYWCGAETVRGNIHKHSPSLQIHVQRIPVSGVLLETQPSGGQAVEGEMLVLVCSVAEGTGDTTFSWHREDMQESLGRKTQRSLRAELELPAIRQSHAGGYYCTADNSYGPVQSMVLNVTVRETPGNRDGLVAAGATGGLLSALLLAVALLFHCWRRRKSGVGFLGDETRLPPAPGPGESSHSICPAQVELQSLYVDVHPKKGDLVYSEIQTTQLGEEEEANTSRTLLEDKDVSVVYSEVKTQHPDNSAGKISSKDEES

T2: Human E11-TM-ICD (E11 domain, transmembrane domain, and cytoplasmic domains of human FcRH5, on SVT2 cells) (human, UniProt Q96RD9 745-977)
T2 construct: On cells
T2 sequence: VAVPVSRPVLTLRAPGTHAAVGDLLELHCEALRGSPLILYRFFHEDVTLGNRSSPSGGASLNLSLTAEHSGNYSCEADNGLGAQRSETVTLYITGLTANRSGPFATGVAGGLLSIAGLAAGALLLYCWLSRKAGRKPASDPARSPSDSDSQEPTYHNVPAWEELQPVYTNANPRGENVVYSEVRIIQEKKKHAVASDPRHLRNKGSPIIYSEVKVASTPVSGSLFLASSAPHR

T3: cynomolgus E11 domain protein (cynomolgus monkey)
T3 construct: whole entry named; also called cyno E11
T3 chain: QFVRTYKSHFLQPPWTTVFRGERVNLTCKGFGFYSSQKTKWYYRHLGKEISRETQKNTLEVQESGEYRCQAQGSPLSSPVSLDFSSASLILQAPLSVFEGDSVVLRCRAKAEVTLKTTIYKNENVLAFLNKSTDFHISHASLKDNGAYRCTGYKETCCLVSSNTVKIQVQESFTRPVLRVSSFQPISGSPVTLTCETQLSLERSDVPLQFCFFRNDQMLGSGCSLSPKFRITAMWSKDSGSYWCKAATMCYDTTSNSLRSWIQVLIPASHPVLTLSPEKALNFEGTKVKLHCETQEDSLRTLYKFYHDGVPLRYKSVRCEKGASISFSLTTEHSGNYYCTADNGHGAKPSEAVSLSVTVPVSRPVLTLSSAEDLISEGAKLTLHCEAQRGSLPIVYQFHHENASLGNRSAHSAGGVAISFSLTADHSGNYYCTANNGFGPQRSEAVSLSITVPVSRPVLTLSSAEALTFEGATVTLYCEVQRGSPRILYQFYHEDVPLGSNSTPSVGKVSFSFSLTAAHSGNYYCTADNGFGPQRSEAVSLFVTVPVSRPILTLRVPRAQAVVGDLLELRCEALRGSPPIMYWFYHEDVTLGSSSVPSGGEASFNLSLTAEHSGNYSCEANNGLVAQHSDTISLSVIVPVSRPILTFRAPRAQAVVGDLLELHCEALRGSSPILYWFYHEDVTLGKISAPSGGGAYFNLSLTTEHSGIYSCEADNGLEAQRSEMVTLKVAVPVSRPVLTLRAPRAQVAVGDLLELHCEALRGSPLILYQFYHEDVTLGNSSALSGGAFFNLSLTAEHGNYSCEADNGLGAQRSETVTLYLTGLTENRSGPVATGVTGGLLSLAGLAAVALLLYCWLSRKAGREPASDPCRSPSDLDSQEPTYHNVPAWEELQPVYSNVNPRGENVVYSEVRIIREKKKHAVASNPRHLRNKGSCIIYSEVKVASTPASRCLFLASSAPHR

T4: human E11 protein (amino acids 745-850 of SEQ ID NO: 114, N-terminal His tag) (human, UniProt Q96RD9 745-850)
T4 construct: Membrane-proximal Ig domain of FcRH5, produced in CHO cells; also called human E11 domain; recombinant human E11
T4 sequence: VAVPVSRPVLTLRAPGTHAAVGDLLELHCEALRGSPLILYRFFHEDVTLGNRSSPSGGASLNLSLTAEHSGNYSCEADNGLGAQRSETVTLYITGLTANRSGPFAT

T5: cynomolgus FcRH5 protein fragment (soluble) (cynomolgus monkey)
T5 construct: whole entry named; also called Cyno FcRH5 (BIACORE analyte)
T5 chain: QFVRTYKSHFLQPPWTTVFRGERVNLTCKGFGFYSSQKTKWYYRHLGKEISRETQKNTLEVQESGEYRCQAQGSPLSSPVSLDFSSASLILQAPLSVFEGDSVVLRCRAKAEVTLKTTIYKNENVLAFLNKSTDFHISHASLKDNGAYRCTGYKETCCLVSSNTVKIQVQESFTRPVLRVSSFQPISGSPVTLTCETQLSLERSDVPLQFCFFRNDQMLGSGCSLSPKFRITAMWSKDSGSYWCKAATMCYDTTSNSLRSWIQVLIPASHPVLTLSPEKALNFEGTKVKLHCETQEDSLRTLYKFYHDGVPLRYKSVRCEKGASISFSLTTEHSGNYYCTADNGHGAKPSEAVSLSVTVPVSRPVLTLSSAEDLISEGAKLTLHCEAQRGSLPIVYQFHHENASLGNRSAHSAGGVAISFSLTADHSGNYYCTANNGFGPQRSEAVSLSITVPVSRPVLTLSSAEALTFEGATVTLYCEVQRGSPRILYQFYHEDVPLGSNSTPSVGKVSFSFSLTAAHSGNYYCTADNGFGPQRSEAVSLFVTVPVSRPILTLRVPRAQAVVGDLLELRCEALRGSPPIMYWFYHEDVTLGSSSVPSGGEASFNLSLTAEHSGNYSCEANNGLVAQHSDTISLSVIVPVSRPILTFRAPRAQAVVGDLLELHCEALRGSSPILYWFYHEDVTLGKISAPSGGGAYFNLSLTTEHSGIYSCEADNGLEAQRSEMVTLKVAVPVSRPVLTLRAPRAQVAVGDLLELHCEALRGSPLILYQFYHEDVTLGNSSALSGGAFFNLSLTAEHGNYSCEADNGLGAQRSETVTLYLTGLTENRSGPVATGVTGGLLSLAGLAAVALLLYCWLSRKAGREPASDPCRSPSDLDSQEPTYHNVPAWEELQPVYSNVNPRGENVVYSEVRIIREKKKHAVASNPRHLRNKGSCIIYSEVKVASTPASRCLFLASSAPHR


How the values were obtained:
[1] = target: T1, human FcRH4 (full-length, on SVT2 cells); assay: FACS, SVT2 cells
[2] = target: T2, Human E11-TM-ICD (E11 domain, …); assay: FACS, SVT2 cells
[3] = target: T3, cynomolgus E11 domain protein; assay: SPR, IgG captured on protein A, monovalent
Procedure: (§1) *E11 domain, transmembrane domain, and cytoplasmic domains of human FcRHS. §Surface plasmon resonance BIACORE * KD, monovalent affinity. Human E11 domain experiments were performed 1 to 3 times and averaged.
(§2) Briefly, test antibodies were captured on flow cells 2, 3 or 4 with flow cell 1 as a reference on a protein A Series S CM5 chip (GE Life Sciences, Piscataway, NJ). An FcRH5 protein fragment was used as analyte, with a flow rate of 30 μl/minute. Between injections the capture surface was regenerated by a 30 second injection of 10 mM glycine, pH 1.5 at a flow rate of 10 μl/minute. Interactions were assessed at 25° C. in 10 mM HEPES pH 7.4, 150 mM NaCl, 0.05% Tween 20 (HBSP). Reference data from the reference flow cell and from injection of buffer alone was subtracted prior to kinetic analysis. Kinetic information was calculated by fitting data to a 1:1 binding model. Reference subtraction and data fitting were performed using BIAevaluation software (GE Life Sciences, Piscataway, NJ).

[4] = target: T4, human E11 protein (amino acids 745-850 …); assay: SPR, IgG captured on protein A, monovalent
Procedure: as §1, §2

[5] = target: T3, cynomolgus E11 domain protein; assay: SPR, IgG capture
Procedure: as §2

[6] = target: T5, cynomolgus FcRH5 protein fragment …; assay: SPR (BIACORE), TDB captured as ligand, Cyno FcRH5 as analyte, 25 °C, 1:1 binding model

| binding result [1] | binding result [2] | Kd [3] [nM] | Kd [4] [nM] | KD difference between human and cynomolgus E11 domains [5] [fold] | Kd [6] [nM] | koff [6] [s⁻¹] | kon [6] [M⁻¹ s⁻¹] | Binder |
| --- | --- | --- | --- | --- | --- | --- | --- | --- |
| no binding | binds | 27 | 68 |  |  |  |  | 17B1 (antibody, mouse IgG2a, V domains shown, mouse mAb, Campaign C; recombinant murine IgG2a for SPR) VH: QVQLQQSGPELVRPGVSVKISCKGSGYTFTHYAMHWVKQSHTKSLEWIGMISSSSGNTNFNQKFMDKATMTVDKSSTTAYLELARLTFGDSAIYYCARWSYYALFDYWGQGTTVTVSS VL: ENVLTQSPAIMSASPGEKVTMTCSADSSVDYIHWYQQKSNTSPKLWIYDTSKLASGVPGRFSGSGSGNSYSLTISSMEAEDFATYYCFQGSGYPLTFGSGTKLELK |
| no binding | binds | 9.1 | 0.5 | ~20 |  |  |  | 15G8 (antibody, mouse IgG2a, V domains shown, mouse mAb, Campaign C; recombinant murine IgG2a for SPR; also called mAb 15G8) VH: EVQLQQSGPELVKPGASVKMSCKASGYTFTNYVIHWMKQKPGQGLEWIGYISPYNDYTKYNEKFEGKATLTSDKSSNTAYMELSSLTSEDSAVYYCARRDYYGSSDYWGQGTTLTVSS VL: QIVLTQSPAIMSASPGEKVTMTCSASSSVDYMHWYQQKSGTSPKKWIYDTSKLASGVPARFSGSGSGTSYSLTIGSMEAEDAATYYCQQWSSNPPTFGGGTKLEIK |
|  |  |  |  |  | 6.27 | 0.000847 | 135000 | hu1G7.v1.4/38E4.v1 TDB (bispecific antibody, V domains shown, knob-into-hole TDB; also called 1G7.v1.4 TDB; 1G7.v1.4 (TDB format)) VH 1: EVQLVESGPGLVKPSETLSLTCTVSGFSLTRFGVHWVRQPPGKGLEWLGVIWRGGSTDYNAAFMSRLTISKDNSKNQVSLKLSSVTAADTAVYYCSNHYYGSSDYALDNWGQGTLVTVSS VL 1: DIQMTQSPSSLSASVGDRVTITCKASQDVRNLVVWFQQKPGKAPKLLIYSGSYRYSGVPSRFSGSGSGTDFTLTISSLQPEDFATYYCQQHYSPPYTFGQGTKVEIK VH 2: EVQLVQSGAEVKKPGASVKVSCKASGFTFTSYYIHWVRQAPGQGLEWIGWIYPENDNTKYNEKFKDRVTITADTSTSTAYLELSSLRSEDTAVYYCARDGYSRYYFDYWGQGTLVTVSS VL 2: DIVMTQSPDSLAVSLGERATINCKSSQSLLNSRTRKNYLAWYQQKPGQSPKLLIYWTSTRKSGVPDRFSGSGSGTDFTLTISSLQAEDVAVYYCKQSFILRTFGQGTKVEIK |
